Results from article PMC7337524, “Mammalian Nudix proteins cleave nucleotide metabolite caps on RNAs” (Nucleic Acids Research, 2020).

Target: the molecule itself
Test: crystal structure; crystals of free human Nudt16 (2.3 Å, with 100 mM MES pH 5.5) and of Nudt16 incubated with 5 mM FAD (2.7 Å); sitting drop at 20°C, 0.2 M ammonium chloride, 20% PEG 3350

B1: human Nudt16 (residues 1-184) (enzyme, UniProt Q96DE0 1-184, looked up)
chain: MAGARRLELGEALALGSGWRHACHALLYAPDPGMLFGRIPLRYAILMQMRFDGRLGFPGGFVDTQDRSLEDGLNRELREELGEAAAAFRVERTDYRSSHVGSGPRVVAHFYAKRLTLEELLAVEAGATRAKDHGLEVLGLVRVPLYTLRDGVGGLPTFLENSFIGSAREQLLEALQDLGLLQSG
notes: Nudt16, human, residues 1-184, cloned into a modified pET28a vector; Seen as a dimer in both crystal forms, free and with FAD; PDB 3COU is the cited search model for molecular replacement; also called free human Nudt16; source: E. coli BL21(DE3), purified (Ni-NTA, UlpI cleavage, heparin column, Sephacryl S-200); not shown: His6, N-terminal, cleaved; yeast SMT3 SUMO, N-terminal, cleaved
binding result: binds
